Assay [1] has as its target HAMA血清タイプ1(Roche製、品番:1767275). The assay is described as follows: forward sandwich ELISA with anti-hCEA antibodies and HAMA serum type 1, inhibitor at 1 ug/ml.
For assay [2], the target named is HAMA血清タイプ1(Roche製、品番:1767275). The assay is described as above. This is another data set of the same source.

Where two headings read alike, the source gives them in different places.

For マウスIgG(CHEMICON製、品番:PP54) (antibody), the HAMA抑制率 was found to be 61% in assay [1] and 39% in assay [2]. On to “Heterophilic Blocking Reagent1(SCANTIBODIES LABORATORY，INC.製、品番:3KC534−075)”, for which the HAMA抑制率 in assay [1] is 68%. Regarding “MAK33−IgG1(Roche製、品番:1200941) (antibody)”, the HAMA抑制率 in assay [1] was 69%; in assay [2], 51%.
